The data set deals with the molecule itself. As to the kind of experiment: negative-stain electron microscopy; sucrose gradient-purified VLPs from baculovirus-infected Sf9 cells, negatively stained with 3% uranyl acetate (pH 4.5), 23,000x.

B1: Norovirus GII.4 Sydney capsid protein VP1 (virus-like particles) (natural protein)
chain: MKMASSDANPSDGSAANLVPEVNNEVMALEPVVGAAIAAPVAGQQNVIDPWIRNNFVQAPGGEFTVSPRNAPGEILWSAPLGPDLNPYLSHLARMYNGYAGGFEVQVILAGNAFTAGKVIFAAVPPNFPTEGLSPSQVTMFPHIVVDVRQLEPVLIPLPDVRNNFYHYNQSNDPTIKLIAMLYTPLRANNAGDDVFTVSCRVLTRPSPDFDFIFLVPPTVESRTKPFSVPVLTVEEMTNSRFPIPLEKLFTGPSSAFVVQPQNGRCTTDGVLLGTTQLSPVNICTFRGDVTHITGSRNYTMNLASQNWNDYDPTEEIPAPLGTPDFVGKIQGVLTQTTRTDGSTRGHKATVYTGSADFAPKLGRVQFETDTDRDFEANQNTKFTPVGVIQDGGTTHRNEPQQWVLPSYSGRNTHNVHLAPAVAPTFPGEQLLFFRSTMPGCSGYPNMDLDCLLPQEWVQYFYQEAAPAQSDVALLRFVNPDTGRVLFECKLHKSGYVTVAHTGQHDLVIPPNGYFRFDSWVNQFYTLAPMGNGTGRRRAV
notes: The VP1 gene was cloned; also called GII.4 SYD VLP; GII.4-2012 (Sydney); source: Sf9 insect cells (baculovirus, pFastBac1), purified by two discontinuous sucrose gradient ultracentrifugations
With B1, the binding result was “binds”.

The values are drawn from PMC5045929, “Norovirus-Specific Memory T Cell Responses in Adult Human Donors” (Frontiers in Microbiology, 2016).
